Measured values taken from US12564623B2, “Methods and compositions for treating cancer” (The University of Chicago, priority 2017, dated 2026).
“Also recorded” adds a separate entry of the source.

Tests used:
MDA-MB-231 cells = test: Cancer cell killing, Calcein AM staining; assay type: cell-based, human
Description: Approach to identify the factor(s) mediating selective killing. A quantitative cancer cell killing assay was developed to track the bioactive factor(s). MDA-MB-231 cells were treated with various doses of PMN media and cell viability was assessed by Calcein AM live cells fluorescence staining. […] (FIG. 3B) PMN media was passed through a 0.22 μm filter, and protein concentration and killing activity on MDA-MB-231 cancer cells was measured in both pre- and post-filter solutions. […] ELANE and ECP levels in PMN media pre- and post-filtration were quantified by mass spectrometry (spectral counts).
To determine if ELANE and/or ECP were responsible, the inventors (1) immuno-depleted ELANE or ECP from PMN media; (2) treated cancer or normal cells with purified native ELANE or ECP from commercial sources. (FIG. 6A) ELANE or ECP were depleted from PMN media by immunoprecipitation; depletion was confirmed by western blotting. PMN media pre-depletion=Orig. and post-depletion=FT. Non-specific IgG was used as a control. (FIG. 6B) MDA-MB-231 cells or human monocyte-derived macrophages (HMDMs) were treated with purified native ELANE or ECP at various doses for 24h, and killing was assessed by Calcein AM staining. (FIG. 6C) MDA-MB-231 cells and HMDMs were treated with levels of ELANE (0.25 μg/mL) or ECP (0.05 μg/mL) that were present in the PMN media, alone or in combination for 24 hrs, and killing was examined by Calcein AM staining.
High doses of ECP or ELANE can kill cancer cells. The inventors sought to determine whether adding purified human ECP (Lee Biosolutions), human ELANE (Abcam), human DEFA1 (Abcam), human ANXA6 (R&D Systems) or human CASP3 (Abcam) individually could kill cancer cells without killing non-cancer cells. Increasing doses of each protein were added to MDA-MB-231 cells for 5h or human monocyte-derived macrophages (HMDMs) for 24 h and cell viability was determined by Calcein-AM.
ELANE and ECP synergize to selectively kill cancer cells. MDA-MB-231 and human monocyte-derived macrophages (HMDMs) were treated with levels of ELANE (0.25 μg/mL) or ECP (0.05 μg/mL) that were present in the PMN media, alone or in combination for 24 hrs. killing was examined by Calcein AM staining.
Combining chemotherapeutics and neutrophil conditioned media enhances the killing of human triple negative breast cancer cells. MDA-MB-231 cells were treated with neutrophil conditioned media (Neu-CM; 4 μg/mL), doxorubicin (DOX; 0.3 μM), or paclitaxel (PTX; 3 nM) for 4h, individually or in combination, and cell viability was assessed by Calcein-AM.
(§1) Other serine proteases cleave the C-terminal domain of CD95, and the ability to cleave the C-terminal domain is associated with cancer cell killing. (FIG. 12A) Full length recombinanat CD95 protein was incubated with various serine proteases (human ELANE (80 nM), PR3 (80 nM), CSTG (80 nM), PPE (80 nM), mouse ELANE (80 nM), rat ELANE (500 nM), GZMB (80 nM), or Trypsin (250 nM)), or other types of proteases (CTSC (80 nM); or MMP7 (80 nM), MMP9 (80 nM), CTSD (80 nM) not shown) at 37° C. for 2 hours. Degradation was assessed by SDS-PAGE followed by coomassie blue staining. (FIG. 12B) MDA-MB-231 cancer cells were incubated with various proteases for 24 hrs. Cell viability was assessed by Calcein AM staining.
(FIG. 13A) MDA-MB-231 cancer cells were treated with various doses of purified native ELANE or purified native porcine pancreatic elastase (PPE) for 6 h, and killing was assessed by Calcein AM staining. (FIG. 13B). Purified native ELANE or purified native PPE was incubated with different concentrations of alpha-1-anti-trypsin (A1AT) for 15 mins. Catalytic activity was measured using a chromogenic substrate assay. Cancer cell killing capability was determined by treating MDA-MB-231 cancer cells with ELANE or PPE in the presence or absence of A1AT for 6h, followed by Calcein AM staining. (FIG. 13C) Catalytic activity was measured using a chromogenic substrate assay. […]

[1] = molecular target: alpha-1-anti-trypsin (A1AT) (Homo sapiens, UniProt P01009); test: Inhibition of elastase activity and killing by A1AT or FBS; assay type: biochemical; conditions: 15 mins, killing 6 h
Description: (FIG. 13A) MDA-MB-231 cancer cells were treated with various doses of purified native ELANE or purified native porcine pancreatic elastase (PPE) for 6 h, and killing was assessed by Calcein AM staining. (FIG. 13B). Purified native ELANE or purified native PPE was incubated with different concentrations of alpha-1-anti-trypsin (A1AT) for 15 mins. Catalytic activity was measured using a chromogenic substrate assay. Cancer cell killing capability was determined by treating MDA-MB-231 cancer cells with ELANE or PPE in the presence or absence of A1AT for 6h, followed by Calcein AM staining. (FIG. 13C) Catalytic activity was measured using a chromogenic substrate assay. Cancer cell killing capability was determined by treating MDA-MB-231 cancer cells with ELANE or PPE in the presence or absence of FBS for 6 h, followed by Calcein AM staining.
Elastase activity for purified native ELANE or purified native PPE at various dose were measured. It's corresponding killing ability was also tested on MDA-MB-231 cancer cells. Killing was assessed 6 hrs after treatment by Calcein AM staining. […] Killing was assessed 6 hrs after treatment by Calcein AM staining. […] Killing was assessed 6 hrs after treatment by Calcein AM staining.

CD95 [2] = molecular target: T1, CD95 (Homo sapiens, UniProt P25445); test: Recombinant CD95 degradation, SDS-PAGE and coomassie blue; assay type: biochemical; design: Recombinant proteins (1 μg) corresponding to full length CD95 (FL-CD95); conditions: purified CD95
T1 sequence (P25445 26-335): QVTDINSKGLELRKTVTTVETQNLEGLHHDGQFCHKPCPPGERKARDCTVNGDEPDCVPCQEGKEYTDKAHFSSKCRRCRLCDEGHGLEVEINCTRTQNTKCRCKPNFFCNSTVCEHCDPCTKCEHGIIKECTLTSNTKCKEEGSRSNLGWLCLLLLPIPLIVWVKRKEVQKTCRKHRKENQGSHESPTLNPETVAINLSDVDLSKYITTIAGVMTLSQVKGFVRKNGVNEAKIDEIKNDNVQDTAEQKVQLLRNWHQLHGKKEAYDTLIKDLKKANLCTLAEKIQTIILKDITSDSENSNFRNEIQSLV
Description: ELANE lowers CD95 levels in cancer cells and reduced CD95 levels are associated with apoptosis. (FIG. 8A) Recombinant proteins (1 μg) corresponding to full length CD95 (FL-CD95), N-terminal domain of CD95 (amino acids 1-173; N-CD95), or C-terminal domain of CD95 (amino acids 157-320; C-CD95) were inbuated with ELANE (0.05 μg) or vehicle (Veh) for 2 hrs at 37° C. Degradation was assessed by SDS-PAGE followed by coomassie blue staining. […] (FIG. 8C) Cancer cells were treated with ELANE (50 nM) for 1 hr, fixed in 10% formalin, and stained with N- or C-terminal specific anti-CD95 antibodies (green). Hoechst 33342 solution was used for nuclear staining (blue). Images were taken under 40×.
ELANE selectively cleaves the C-terminal domain of CD95. The CD95 pathway is essential for the survival of a wide range of cancer cells, but largely dispensable for normal cell survival (Adachi et al., Nat. Genet., 1995; Karray et al., J. Immunol., 2004). CD95 function can be modulated by proteolysis (Strand et al., Oncogene, 2004). To test CD95 involvement in ELANE mediated cell killing ELANE (0.05 μg) was incubated with 1 μg recombinant human C-terminal (aa. 157-320) or N-terminal (aa. 1-173) CD95 for 2 hrs at 37° C. Degradation was assessed by SDS-PAGE followed by staining with coomassie blue. C-terminal domain cleavage. N-terminal domain cleavage. Cancer cells were treated with ELANE (50 nM) for 1 hr, fixed in 10% formalin, and stained with N- or C-terminal specific anti-CD95 antibodies. Hoechst 33342 solution was used for nuclear staining. Images were taken under 40×. […] Mel888 cancer cells were treated with ELANE (50 nM) for various times, and CD95 degradation was assessed by western blot analysis with a C-terminal specific anti-CD95 antibody.
as §1

CD95 [3] = molecular target: T1, CD95; conditions: Strand et al., Oncogene, 2004; cited from earlier work

Chain of alpha-1-anti-trypsin (A1AT) (P01009 25-418, species assumed): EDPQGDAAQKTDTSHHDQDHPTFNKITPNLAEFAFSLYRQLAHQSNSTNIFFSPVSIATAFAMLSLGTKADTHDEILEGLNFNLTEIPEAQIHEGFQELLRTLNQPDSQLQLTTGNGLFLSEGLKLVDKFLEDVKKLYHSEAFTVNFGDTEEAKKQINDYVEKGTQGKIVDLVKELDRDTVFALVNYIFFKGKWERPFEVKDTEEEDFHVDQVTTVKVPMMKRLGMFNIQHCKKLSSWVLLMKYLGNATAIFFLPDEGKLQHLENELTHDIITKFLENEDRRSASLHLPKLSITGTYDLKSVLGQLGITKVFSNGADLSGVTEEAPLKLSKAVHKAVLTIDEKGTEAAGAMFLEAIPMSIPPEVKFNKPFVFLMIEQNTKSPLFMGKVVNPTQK

| Substance | cancer cell killing by proteases (MDA-MB-231 cells) | toxicity to cancer cells, ELANE versus PPE (MDA-MB-231 cells; various doses, 6 h) | susceptibility to inhibition by serine protease inhibitors [1] | cleavage of purified CD95 (CD95 [2]) | cleavage of CD95 (CD95 [3]) |
| --- | --- | --- | --- | --- | --- |
| porcine pancreatic elastase [PPE] | killed cancer cells | equally toxic to cancer cells | more resistant to inhibition by serine protease inhibitors; also recorded: less susceptibility to alpha 1 anti-trypsin (A1AT) or serum blocking | cleaved purified CD95 with an identical degradation pattern to ELANE |  |
| MMP7: protease previously shown to cleave the extracellular N-terminal domain of CD95 |  |  |  |  | cleave the extracellular N-terminal domain of CD95 |
